Experimental data taken from PMC3477164, “Improved eIF4E Binding Peptides by Phage Display Guided Design: Plasticity of Interacting Surfaces Yield Collective Effects” (PLoS ONE, 2012).
Ends that are not written are not given here.

How the values were obtained:
[1] = Solubility of the peptide as observed on handling; format: physicochemical; details: qualitative observation
eIF4E = target: T1, eIF4E (Homo sapiens, UniProt P06730); assay: Fluorescence based thermal shift (thermal stability) assay, Sypro Red; format: binding; details: shift of eIF4E Tm, 10 µM eIF4E, 100 µM peptide, PBS, 20 to 90°C at 1°C/min, Ex/Em 533/640 nm
T1 construct: Full-length human eIF4E was expressed and purified as described previously; made in house
Protocol: A fluorescence based thermal shift assay was used to screen and rank the rationally designed eIF4E binding derivative peptides. The fluorescent dye Sypro Red (Invitrogen) was used to monitor thermal denaturation of eIF4E. Binding of the dye molecule to eIF4E, as it unfolds due to thermal denaturation, results in a sharp increase in the fluorescence intensity. The midpoint of this transition is termed the Tm. The thermal shift assay was conducted in a LightCycler (Roche). Protein samples studied were made up to a total volume of 50 µl in PBS (Phosphate Buffered Saline) with Sypro Red, (Invitrogen, 5000× DMSO stock) at a 3.125× concentration. The final protein concentration was 10 µM. Protein samples were incubated with derivative peptides at a concentration of 100 µM. […] The fluorescence intensity was measured with Ex/Em:533/640 nm.
The fluorescence data against temperature derived from the LightCycler were fitted to Eq. (1) to obtain ΔHu, ΔCpu, and Tm by nonlinear regression using the program Prism 4.0, Graphpad: [drawing 1] (1) where Ft is the fluorescence intensity at temperature T; Tm is the midpoint temperature of the protein-unfolding transition, Fpre and Fpost are the pretransitional and posttransitional fluorescence intensities, respectively, R is the gas constant, ΔHu is the enthalpy of protein unfolding, and ΔCpu is the heat capacity change on protein unfolding. […]

[2] = target: T2, Eukaryotic initiation factor 4E (eIF4E), full-length human (human, UniProt P06730 1-217); assay: fluorescence based thermal shift assay; 10 uM eIF4E with 100 uM peptide in PBS, Sypro Red, heated from 20 to 90 °C at 1 °C/min; Kd estimated from the Tm shift (enthalpy of binding taken to be -5 kcal/mol); details: both partners purified
T2 construct: eIF4E, human, full length

[3] = target: T2, Eukaryotic initiation factor 4E …; assay: SPR; eIF4E amine coupled to a CM5 chip (about 1000 RU, m7GTP present at immobilisation), peptides injected; 10 mM Hepes pH 7.6, 0.15 M NaCl, 1 mM DTT, 0.1% Tween20, 3% DMSO; Biacore T100; Kd from the association and dissociation phases (Kkin), 1:1 model, three titrations; details: both partners purified
[4] = target: T2, Eukaryotic initiation factor 4E …; assay: SPR; eIF4E amine coupled to a CM5 chip (about 1000 RU, m7GTP present at immobilisation), peptides injected; 10 mM Hepes pH 7.6, 0.15 M NaCl, 1 mM DTT, 0.1% Tween20, 3% DMSO; Biacore T100; Kd from the equilibrium responses (Keq), 1:1 model, three titrations; details: both partners purified
[5] = target: T2, Eukaryotic initiation factor 4E …; assay: SPR; eIF4E amine coupled to a CM5 chip (about 1000 RU, m7GTP present at immobilisation), peptides injected; 10 mM Hepes pH 7.6, 0.15 M NaCl, 1 mM DTT, 0.1% Tween20, 3% DMSO; Biacore T100; Kd from the association and dissociation phases (Kkin), 1:1 model, three titrations; details: both partners purified; remark: listed apart in the source
[6] = target: T2, Eukaryotic initiation factor 4E …; assay: SPR; eIF4E amine coupled to a CM5 chip (about 1000 RU, m7GTP present at immobilisation), peptides injected; 10 mM Hepes pH 7.6, 0.15 M NaCl, 1 mM DTT, 0.1% Tween20, 3% DMSO; Biacore T100; Kd from the equilibrium responses (Keq), 1:1 model, three titrations; details: both partners purified; remark: listed apart in the source
[7] = target: T2, Eukaryotic initiation factor 4E …; assay: SPR; eIF4E amine coupled to a CM5 chip (about 1000 RU, m7GTP present at immobilisation), peptides injected; 10 mM Hepes pH 7.6, 0.15 M NaCl, 1 mM DTT, 0.1% Tween20, 3% DMSO; Biacore T100; Kd from the association and dissociation phases (Kkin), 1:1 model, three titrations; details: both partners purified; remark: listed apart in the source
[8] = target: T2, Eukaryotic initiation factor 4E …; assay: SPR; eIF4E amine coupled to a CM5 chip (about 1000 RU, m7GTP present at immobilisation), peptides injected; 10 mM Hepes pH 7.6, 0.15 M NaCl, 1 mM DTT, 0.1% Tween20, 3% DMSO; Biacore T100; Kd from the equilibrium responses (Keq), 1:1 model, three titrations; details: both partners purified; remark: listed apart in the source

T2 sequence (P06730 whole entry): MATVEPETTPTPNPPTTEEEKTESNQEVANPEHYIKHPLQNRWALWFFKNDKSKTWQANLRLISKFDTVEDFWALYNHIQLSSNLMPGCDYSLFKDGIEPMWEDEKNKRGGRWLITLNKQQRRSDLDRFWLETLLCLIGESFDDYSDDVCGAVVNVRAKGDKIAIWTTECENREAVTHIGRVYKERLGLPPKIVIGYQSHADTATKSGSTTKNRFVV
T1 sequence (P06730 whole entry): as above

KKRYSRDQLVAL [PHAGESOL]
solubility of the peptide (in words) [1]: soluble

SLHYSRDQLVAL [PHAGE, phage display selected 12mer […]]
solubility of the peptide (in words) [1]: insoluble | Thermal Shift (Tm, °C) (eIF4E): no observable shift

B1: eIF4G1 wild type peptide (peptide)
peptide: KKRYDREFLLGF
notes: also called eIF4G1-WT; eIF4G1 peptide; source: synthetic peptide (Mimotopes), HPLC purified to >90%
Kd [2]: 460 nM | thermal shift (Tm) [2]: 7.03 ± 0.1 °C | Kd [3]: 524 ± 61.6 nM | Kd [4]: 580 ± 16.7 nM

B2: eIF4G1-D5P peptide (peptide)
peptide: KKRYPREFLLGF
notes: eIF4G1 peptide with D5P; source: synthetic peptide (Mimotopes), HPLC purified to >90%
Kd [5]: 717 ± 31.2 nM | Kd [6]: 684 ± 13.6 nM

B3: eIF4G1-L10V peptide (peptide)
peptide: KKRYDREFLVGF
notes: eIF4G1 peptide with L10V; source: synthetic peptide (Mimotopes), HPLC purified to >90%
Kd [2]: 4400 nM | thermal shift (Tm) [2]: 3.9 ± 0.03 °C | Kd [3]: 2680 ± 444 nM | Kd [4]: 4540 ± 622 nM

B4: VL-PHAGESOL peptide (peptide)
peptide: KKRYSRDQLLAL
notes: PHAGESOL with V10L; also called PHAGESOL V10L; source: synthetic peptide (Mimotopes), HPLC purified to >90%
Kd [7]: 34.7 ± 1.2 nM | Kd [8]: 37.2 ± 1.6 nM

B5: eIF4G1-D5T peptide (peptide)
peptide: KKRYTREFLLGF
notes: eIF4G1 peptide with D5T; source: synthetic peptide (Mimotopes), HPLC purified to >90%
Kd [5]: 105 ± 7.2 nM | Kd [6]: 110 ± 1.8 nM

B6: eIF4G1-G11A peptide (peptide)
peptide: KKRYDREFLLAF
notes: eIF4G1 peptide with G11A; source: synthetic peptide (Mimotopes), HPLC purified to >90%
Kd [2]: 200 nM | thermal shift (Tm) [2]: 8.13 ± 0.12 °C | Kd [3]: 282 ± 17.6 nM | Kd [4]: 309 ± 11.6 nM

B7: eIF4G1-OPT peptide (peptide)
peptide: KKRYSREFLLAF
notes: eIF4G1 peptide with D5 changed to S and G11 changed to A; source: synthetic peptide (Mimotopes), HPLC purified to >90%
Kd [7]: 59.4 ± 2.9 nM | Kd [8]: 52.2 ± 1.4 nM

B8: eIF4G1-QL peptide (peptide)
peptide: KKRYDREQLLGL
notes: eIF4G1 peptide with F8Q and F12L; also called eIF4G1_F8Q/F12L; source: synthetic peptide (Mimotopes), HPLC purified to >90%
Kd [7]: 1090 ± 106 nM | Kd [8]: 1090 ± 49.9 nM

B9: eIF4G1-D5N peptide (peptide)
peptide: KKRYNREFLLGF
notes: eIF4G1 peptide with D5N; source: synthetic peptide (Mimotopes), HPLC purified to >90%
Kd [5]: 388.9 ± 1.6 nM | Kd [6]: 444.5 ± 1.6 nM

B10: eIF4G1-D5C peptide (peptide)
peptide: KKRYCREFLLGF
notes: eIF4G1 peptide with D5C; source: synthetic peptide (Mimotopes), HPLC purified to >90%
Kd [5]: 458 ± 19.8 nM | Kd [6]: 436 ± 6.4 nM

B11: eIF4G1-D5E peptide (peptide)
peptide: KKRYEREFLLGF
notes: eIF4G1 peptide with D5E; also called eIF4G-D5E; source: synthetic peptide (Mimotopes), HPLC purified to >90%
Kd [5]: 692 ± 31.2 nM | Kd [6]: 749 ± 57.7 nM

B12: eIF4G1-D5G peptide (peptide)
peptide: KKRYGREFLLGF
notes: eIF4G1 peptide with D5G; source: synthetic peptide (Mimotopes), HPLC purified to >90%
Kd [5]: 440 ± 26 nM | Kd [6]: 468 ± 28.1 nM

B13: VL-PHAGESOL-Q8F peptide (peptide)
peptide: KKRYSRDFLLAL
notes: PHAGESOL with V10L and Q8F; source: synthetic peptide (Mimotopes), HPLC purified to >90%
Kd [7]: 47.1 ± 1.5 nM | Kd [8]: 49.6 ± 4.3 nM

B14: eIF4G1-F8Q peptide (peptide)
peptide: KKRYDREQLLGF
notes: eIF4G1 peptide with F8Q; also called eIF4G-F/Q; source: synthetic peptide (Mimotopes), HPLC purified to >90%
Kd [2]: 2000 nM | thermal shift (Tm) [2]: 5 ± 0.03 °C | Kd [3]: 1780 ± 406 nM | Kd [4]: 1630 ± 75.1 nM

B15: eIF4G1-E7D peptide (peptide)
peptide: KKRYDRDFLLGF
notes: eIF4G1 peptide with E7D; also called E7D mutant peptide; source: synthetic peptide (Mimotopes), HPLC purified to >90%
Kd [2]: 520 nM | thermal shift (Tm) [2]: 6.87 ± 0.18 °C | Kd [3]: 759 ± 70.7 nM | Kd [4]: 784 ± 21.5 nM

B16: eIF4G1-F12L peptide (peptide)
peptide: KKRYDREFLLGL
notes: eIF4G1 peptide with F12L; also called F12L mutant peptide; source: synthetic peptide (Mimotopes), HPLC purified to >90%
Kd [2]: 520 nM | thermal shift (Tm) [2]: 6.87 ± 0.12 °C | Kd [3]: 718 ± 98 nM | Kd [4]: 761 ± 63.8 nM

B17: PHAGESOL-D7E peptide (peptide)
peptide: KKRYSREQLVAL
notes: PHAGESOL with D7E; source: synthetic peptide (Mimotopes), HPLC purified to >90%
Kd [7]: 52.9 ± 2.1 nM | Kd [8]: 51.6 ± 1.8 nM

B18: PHAGESOL-L12F peptide (peptide)
peptide: KKRYSRDQLVAF
notes: PHAGESOL with L12F; source: synthetic peptide (Mimotopes), HPLC purified to >90%
Kd [7]: 120 ± 5.3 nM | Kd [8]: 112 ± 2.7 nM

B19: PHAGESOL peptide (peptide)
peptide: KKRYSRDQLVAL
notes: phage display selected 12-mer … with its N-terminal SLH changed to KKR of the eIF4G1 peptide; source: synthetic peptide (Mimotopes), HPLC purified to >90%
Kd [2]: 77 nM | thermal shift (Tm) [2]: 9.83 ± 0.1 °C | Kd [3]: 77.1 ± 9 nM | Kd [4]: 76.7 ± 3.4 nM

B20: PHAGESOL-Q8F/L12F peptide (peptide)
peptide: KKRYSRDFLVAF
notes: PHAGESOL with Q8F and L12F; source: synthetic peptide (Mimotopes), HPLC purified to >90%
Kd [7]: 374 ± 33.1 nM | Kd [8]: 348 ± 20.9 nM

B21: VL-PHAGESOL-Q8F/L12F peptide (peptide)
peptide: KKRYSRDFLLAF
notes: PHAGESOL with V10L, Q8F and L12F; source: synthetic peptide (Mimotopes), HPLC purified to >90%
Kd [7]: 62 ± 3.5 nM | Kd [8]: 69.9 ± 6.4 nM

B22: eIF4G1-D5S peptide (peptide)
peptide: KKRYSREFLLGF
notes: eIF4G1 peptide with D5S; also called eIF4G-D5S; source: synthetic peptide (Mimotopes), HPLC purified to >90%
Kd [2]: 100 nM | thermal shift (Tm) [2]: 8.97 ± 0.07 °C | Kd [3]: 99.9 ± 6.2 nM | Kd [4]: 103 ± 2.3 nM

B23: VL-PHAGESOL-L12F peptide (peptide)
peptide: KKRYSRDQLLAF
notes: PHAGESOL with V10L and L12F; source: synthetic peptide (Mimotopes), HPLC purified to >90%
Kd [7]: 40.7 ± 3.8 nM | Kd [8]: 43.21 ± 0.34 nM

B24: PHAGESOL-Q8F peptide (peptide)
peptide: KKRYSRDFLVAL
notes: PHAGESOL with Q8F; source: synthetic peptide (Mimotopes), HPLC purified to >90%
Kd [7]: 184 ± 15.4 nM | Kd [8]: 196 ± 6.3 nM
